Laboratory results taken from article PMC5308896, “A conformational switch regulates the ubiquitin ligase HUWE1” (eLife, 2017).
Values belong to the molecule of their own block, whether it stands above or below them.

Key:
[1] = biological target: HUWE1 (3951–4374), crystallization construct with the N-terminal expression tag (human) (UniProt Q7Z6Z7); assay: SEC-MALS; proteins injected at high concentration (~350 to 400 μM; highest point of Figure 3A, Figures 4A, 4F, 4G, Table 2); Superdex 200 10/300 GL, room temperature, 20 mM HEPES pH 8.0, 250 mM NaCl, 1 mM EDTA, 5 mM DTT
[2] = biological target: HUWE1 (3951–4374), untagged (human) (UniProt Q7Z6Z7); assay: AUC; sedimentation equilibrium, dimer to monomers (monomer-dimer self-association model, Sedphat); 10 µM protein, 4°C, 10 mM HEPES pH 8.0, 200 mM NaCl, 1 mM EDTA, 1 mM β-mercaptoethanol; 9000, 13,000 and 17,000 rpm
HUWE1 (3843–4374) [3] = biological target: T1, HUWE1 (3843–4374) (human, UniProt Q7Z6Z7 3843-4374); assay: SEC; as the SEC with p14ARF (45-75), but with p14ARF (45-64); result told only in one sentence of the methods, no data shown; conditions: both partners purified
T1 construct: source: LOBSTR RIL cells, purified (IMAC, gel filtration)
T1 sequence (looked up): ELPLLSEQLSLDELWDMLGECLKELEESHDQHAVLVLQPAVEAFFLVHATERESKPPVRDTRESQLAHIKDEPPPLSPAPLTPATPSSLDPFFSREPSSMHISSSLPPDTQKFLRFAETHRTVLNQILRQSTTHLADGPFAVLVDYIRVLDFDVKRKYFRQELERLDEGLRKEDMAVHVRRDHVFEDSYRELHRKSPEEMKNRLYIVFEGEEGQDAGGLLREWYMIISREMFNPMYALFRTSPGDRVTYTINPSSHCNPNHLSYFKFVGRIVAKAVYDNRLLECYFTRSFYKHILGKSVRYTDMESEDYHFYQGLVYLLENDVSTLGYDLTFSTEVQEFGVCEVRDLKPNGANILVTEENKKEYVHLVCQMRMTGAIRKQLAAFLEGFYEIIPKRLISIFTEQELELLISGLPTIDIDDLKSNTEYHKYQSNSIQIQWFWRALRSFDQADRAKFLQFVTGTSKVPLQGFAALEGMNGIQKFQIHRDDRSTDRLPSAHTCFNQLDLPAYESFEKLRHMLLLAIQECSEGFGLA

[4] = biological target: T2, HUWE1 (3951–4374), untagged (human, UniProt Q7Z6Z7 3951-4374); assay: SEC; MBP-tagged activation segment (or MBP) and HUWE1 constructs, each alone at 120 μM and as a 1.5:1 molar mixture; Superdex 200 Increase 3.2/300, 4°C, 20 mM HEPES pH 8.0, 100 mM NaCl, 1 mM EDTA, 5 mM DTT; conditions: both partners purified
T2 construct: Monomer MW 49.752 kDa (AUC methods); source: LOBSTR RIL cells, purified (IMAC, TEV protease cleavage, second IMAC, gel filtration); not shown: His6, N-terminal, cleaved
T2 sequence (looked up): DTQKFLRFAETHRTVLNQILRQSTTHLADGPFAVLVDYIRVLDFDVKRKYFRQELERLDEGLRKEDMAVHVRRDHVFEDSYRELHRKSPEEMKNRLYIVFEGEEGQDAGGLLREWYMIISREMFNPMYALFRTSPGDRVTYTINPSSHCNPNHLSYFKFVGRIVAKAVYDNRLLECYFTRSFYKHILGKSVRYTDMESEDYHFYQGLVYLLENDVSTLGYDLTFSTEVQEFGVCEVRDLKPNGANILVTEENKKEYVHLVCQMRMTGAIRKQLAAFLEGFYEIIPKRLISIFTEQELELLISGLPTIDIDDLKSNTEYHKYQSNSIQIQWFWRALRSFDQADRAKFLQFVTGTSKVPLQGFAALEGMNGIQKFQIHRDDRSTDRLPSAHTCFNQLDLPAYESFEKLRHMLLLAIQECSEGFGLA

HUWE1 (3843–4374) [5] = biological target: T1, HUWE1 (3843–4374); assay: SEC; HUWE1 constructs at 120 μM without and with a four-fold molar excess of p14ARF (45-75); 10% DMSO; Superdex 200 Increase 3.2/300, 4°C; co-elution of the peptide shown by SDS-PAGE; conditions: both partners purified
[6] = biological target: the molecule itself; assay: SEC-MALS; proteins injected at high concentration (~350 to 400 μM; highest point of Figure 3A, Figures 4A, 4F, 4G, Table 2); Superdex 200 10/300 GL, room temperature, 20 mM HEPES pH 8.0, 250 mM NaCl, 1 mM EDTA, 5 mM DTT

stoichiometry N [1]: 2
Molecule: HUWE1 (3951–4374), crystallization construct with the N-terminal expression tag (from UniProt Q7Z6Z7 3951-4374) (domain or fragment)

Kd [2]: 2900 nM
Molecule: HUWE1 (3951–4374), untagged (from UniProt Q7Z6Z7 3951-4374) (domain or fragment)

binding result (HUWE1 (3843–4374) [3]): binds
B1: p14ARF-derived peptide (residues 45–64), unlabelled (peptide, UniProt Q8N726 45-64, looked up)
peptide: LVLMLLRSQRLGQQPLPRRP
notes: p14ARF, human, residues 45–64; also called p14ARF (45-64); source: synthetic peptide, bought: Elim Biopharm

binding result [4]: binds
B2: MBP-tagged activation segment of HUWE1 (residues 3843–3902) (domain or fragment, human, UniProt Q7Z6Z7 3843-3902, looked up)
chain: ELPLLSEQLSLDELWDMLGECLKELEESHDQHAVLVLQPAVEAFFLVHATERESKPPVRD
notes: pETM41: N-terminal TEV protease-cleavable MBP-tag, C-terminal 3C protease-cleavable His6-tag; source: E. coli BL21(DE3), purified (IMAC, gel filtration); not shown: MBP, N-terminal, kept; His6, C-terminal, kept

binding result (HUWE1 (3843–4374) [5]): binds
B3: p14ARF-derived peptide (residues 45–75) (peptide, UniProt Q8N726 45-75, looked up)
peptide: LVLMLLRSQRLGQQPLPRRPGHDDGQRPSGG
notes: p14ARF, human, residues 45–75; also called p14ARF (45-75); p14ARF-peptide; source: synthetic peptide, bought: Elim Biopharm

B4: HUWE1 (3896–4374) (domain or fragment, human, UniProt Q7Z6Z7 3896-4374, looked up)
chain: SKPPVRDTRESQLAHIKDEPPPLSPAPLTPATPSSLDPFFSREPSSMHISSSLPPDTQKFLRFAETHRTVLNQILRQSTTHLADGPFAVLVDYIRVLDFDVKRKYFRQELERLDEGLRKEDMAVHVRRDHVFEDSYRELHRKSPEEMKNRLYIVFEGEEGQDAGGLLREWYMIISREMFNPMYALFRTSPGDRVTYTINPSSHCNPNHLSYFKFVGRIVAKAVYDNRLLECYFTRSFYKHILGKSVRYTDMESEDYHFYQGLVYLLENDVSTLGYDLTFSTEVQEFGVCEVRDLKPNGANILVTEENKKEYVHLVCQMRMTGAIRKQLAAFLEGFYEIIPKRLISIFTEQELELLISGLPTIDIDDLKSNTEYHKYQSNSIQIQWFWRALRSFDQADRAKFLQFVTGTSKVPLQGFAALEGMNGIQKFQIHRDDRSTDRLPSAHTCFNQLDLPAYESFEKLRHMLLLAIQECSEGFGLA
notes: source: LOBSTR RIL cells, purified (IMAC, gel filtration)
stoichiometry N [6]: 2
